Variants at the floor of the assay were thinned out.
B1: TPR 5TU (parent)
chain: GGAUCUUCUCGAUCUAACAAAAAAGACAAAUCUGCCACAAAGCUUGAGAGCAUCUUCGGAUGCAGAGGCGGCAGCCUUCGGUGGCGCGAUAGCGCCAACGUUCUCAACUAUGACACGCAAAACGCGUGCUCCGUUGAAUGGAGUUUAUCAUG

Variants of: B1
Assay: polymerase ribozyme fitness, log enrichment relative to wild type (log ratio); higher = more active; in vitro selection for triplet polymerase activity
Summary of the method: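 In triplicate, a single round of in vitro selection was run on each mutant library, PCR-built and transcribed, covering one subunit of a heterodimeric triplet polymerase ribozyme. Frozen incubation at −7 °C followed annealing with a biotinylated primer, partner subunit and triplets, and extended constructs were then gel-excised, streptavidin-captured and taken through RT-PCR. Fitness is the logarithm of genotype enrichment over wild-type enrichment, from inverse-variance-weighted replicate averages of Illumina-sequenced inputs and outputs. […] only genotypes with ≥10 input reads and ≥1 read per output were kept.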

Row | Variant | polymerase ribozyme fitness (log ratio)
1 | C51A C95U A97U | -2.64
2 | U45A A49G G84U A115G A120G | ≤ -4.2
3 | G80A A142U U144C | -3.55
4 | U44A C95U C96G A120C | ≤ -4.2
5 | U13G G50U C93U | -3.9
6 | A22U G141C | 1.14
7 | U6G C43A A52C C85A A98U A113C | ≤ -4.2
8 | A23U A24C A30G A39G C116U | ≤ -4.2
9 | A23C U144C | -4.15
10 | G65C G86C | ≤ -4.2
11 | U45C G84A | -1.08
12 | C18G C35A C76U G83C G84U G88A G141U | ≤ -4.2
13 | A22C A29C G68A G81A C85A C105G A142U | ≤ -4.2
14 | A41C G48C U56A A89C C103U | -2.34
15 | A29U A40U G68U C69U G92A G140C | ≤ -4.2
16 | C54G C95G | -2.56
17 | U9A C149G | ≤ -4.2
18 | U31C A49C G94U A121U | ≤ -4.2
19 | A20C U55A A89G G94C C95A C108G C123G | ≤ -4.2
20 | U9C A52G U53A C114G U145G | ≤ -4.2
21 | A49C U56C | ≤ -4.2
22 | C5A A89G C95G C132U | -3.03
23 | A3U U55A G84A | -0.911
24 | U45G C79G G83U C85G U102C | ≤ -4.2

Row | Variant | polymerase ribozyme fitness (log ratio)
25 | U31A C95G C125A | -1.34
26 | G80U U82C | -1.68
27 | G42A G48A A97G A138U | ≤ -4.2
28 | A91G C105U C131A | -3.83
29 | A19G A40U G62U A121U G141U | -1.46
30 | C85G C125A | -2.37
31 | A17G A37U C51U | -2.83
32 | G81C A120G | -0.127
33 | C87U U127A | -3.2
34 | G65A C114A | -3.39
35 | C8U A60U | -3.79
36 | C27U C76G G84U | ≤ -4.2
37 | G136C U146C | -2.93
38 | A121G U135A | -0.777
39 | A26U A52U U135A | -2.83
40 | A23C A30U G50A C54A C93G C95U G124A | ≤ -4.2
41 | C14G U15G C54U G58U C87G C105U G143A | ≤ -4.2
42 | C93A A106C | -2.63
43 | U44A A49U C72G C79G G92U A150G | ≤ -4.2
44 | G50A C54U U56A G70A C87G U90A C95G U109G C114G G141U | ≤ -4.2
45 | A47C U55A C57A G84U C96U C99U G136A G143C | ≤ -4.2
46 | C35G | -3.25
47 | C93A A97U | -3.38
48 | C51A A60G A89U | -1.65

Row | Variant | polymerase ribozyme fitness (log ratio)
49 | G48A G136C | -2.57
50 | A47C U151G G152A | -4.19
51 | A52U G84A | -2.18
52 | C35U U53A U55A C57G G70A G84A C93A | ≤ -4.2
53 | A21G G50U G92U A147C | -0.875
54 | A3U G46C U77C G86U A98U A121U U127A | -4.08
55 | C57U G80A | -0.314
56 | A3G A20G G48C G50C G67C G68A G83A U139C | ≤ -4.2
57 | G83U C95G | -1.54
58 | A52G G58C G59C C96G A150U | -3.59
59 | G25C A60U C93A C95G A137G | ≤ -4.2
60 | G62U G136A | 0.626
61 | U56A C118G A150G | -2.41
62 | U82C C95G U148C | -4.02
63 | G11A A12C A23C G46A A73U G80C A97U U109A U145A | ≤ -4.2
64 | U127G U134C | -3.03
65 | A12U G25C C35U U77G G94U | ≤ -4.2
66 | A60C C85U | -1.01
67 | C51A A91G | -3.53
68 | A21U U56A G140A G141A | -4.17
69 | A37G C93G A97C C116A | ≤ -4.2
70 | C57G G86U | -1.26
71 | A20C C54U G70C C93A | ≤ -4.2
72 | G117C | 0.422

Row | Variant | polymerase ribozyme fitness (log ratio)
73 | A17U A40U C123U | -0.36
74 | A24U C36A U44A C72G C95A A119G G140C | ≤ -4.2
75 | A52U G80C G126A G133C | ≤ -4.2
76 | U55A C76G G100C U109A A120G | ≤ -4.2
77 | A12C A16U U145G | -2.26
78 | C93U C95U | -2.43
79 | U61A C103G A115U | ≤ -4.2
80 | A16U A49G | -1.93
81 | A49C U56A C69A C99A | ≤ -4.2
82 | A17C A19G C51U G59U C75A A91U C116G A121C | ≤ -4.2
83 | C14G A28C A47G U53A G84U | ≤ -4.2
84 | G86U C99G | -3.67
85 | A3U A21C G62C C63U A73U C79U G84A C93G A106U U145G | ≤ -4.2
86 | C38U C149U | -2.71
87 | C57G G84A | -0.518
88 | G11C A20U A40U U82G G83A C93A C108A | ≤ -4.2
89 | C27A U55A C76U A98G | ≤ -4.2
90 | A30U G42U A119G A138G | ≤ -4.2
91 | C132U U145G | -0.815
92 | U4G U13G C93U A120G G143A U148C | ≤ -4.2
93 | C57G U82A G83U G141U | -1.49
94 | A49U G59A C85A | -3.41
95 | A52C U56A C96A A110G | -3.99
96 | A37G G48C A52C U56A C79A U104A U109A C116G C149G G152A | ≤ -4.2

Row | Variant | polymerase ribozyme fitness (log ratio)
97 | C18A U55G C85A C118U | -2.09
98 | U6G U56A G70C C85G A107U U144G | ≤ -4.2
99 | A47C C57A | -0.176
100 | U4G G42C C76G U90C C93G A113C | ≤ -4.2
101 | C14A G48A A91U G100A U101C U134A | ≤ -4.2
102 | U55A C96G | -1.04
103 | U101G A138U | -3.25
104 | C5G U7A C93U A106C | -3.03
105 | U55A U146G | -0.637
106 | C5A A17U G83A U146G | -0.599
107 | A37C U55A | 0.0873
108 | C27U U56A G84U G86C C114G U145A | ≤ -4.2
109 | G34A C85U A147C U148G G152U | ≤ -4.2
110 | C57U C125A | -0.844
111 | C57A A121U | -0.0826
112 | U53A G128C A137C U148G C149G | ≤ -4.2
113 | U53A C57A U102G C125A U134A | ≤ -4.2
114 | A52C C85A C93U C96G A121C U146C | ≤ -4.2
115 | C93U A98C | -0.981
116 | A12G C14A C38U C43A U56A C85U C103G | ≤ -4.2
117 | G92C U148C | -2.56
118 | A49C U55A G86A C99G A142U | ≤ -4.2
119 | A17U A20G G42C C85U G128C | ≤ -4.2
120 | G94A C95G G133A U134G A137U | -4.11

Row | Variant | polymerase ribozyme fitness (log ratio)
121 | A41C C76U G81A A110C | ≤ -4.2
122 | A91C C114U U139C | ≤ -4.2
123 | U56A G74U C85G G133U | ≤ -4.2
124 | G25U C103G | -3.2
125 | G84U U148A | ≤ -4.2
126 | G34A C35A G83C A106U G133U A137G G141U | ≤ -4.2
127 | A3U A49G | -0.232
128 | A30G C87A A91C A110U A115U U135C | ≤ -4.2
129 | U55A U56A U78C G83U A89U | -0.955
130 | G62C C72A A91G A98G C123U | ≤ -4.2
131 | A91U U139A G140C G143C | ≤ -4.2
132 | G68A A106C | -4.13
133 | C27G A39G C93G G112A C129G | ≤ -4.2
134 | A39C G81A G94U A106G A110C G140U | -4.04
135 | A30G A52C U53C C93A G100C C132A | ≤ -4.2
136 | A12U C14U A17U G59A C93U A122U G143C | ≤ -4.2
137 | A21U G84U | -1.29
138 | A107U U109G | ≤ -4.2
139 | A21U G136U | -2.65
140 | G94A A120C | -0.523
141 | A30C C87A | ≤ -4.2
142 | A40U G92A A120U C132A G141C | ≤ -4.2
143 | A17C U45A C54G G74A A91C U139G | ≤ -4.2
144 | A47C A107U C108A | ≤ -4.2

Row | Variant | polymerase ribozyme fitness (log ratio)
145 | C85U C95G A119U | -1.89
146 | G46C A52G A137G | -2.44
147 | A21G C27G U33C G62U G81U C96U C105A A113U A122U | ≤ -4.2
148 | U13A U53A C63G A97U U102G A142C | ≤ -4.2
149 | G11C C85U A119G | -2.02
150 | C51G G136U U144G | -2.56
151 | A12G U13G A121G | -2.27
152 | A28G A49C C76U G94U A150G | ≤ -4.2
153 | C54A G83U | -1.19
154 | C69G A89U | -1.45
155 | U31A C93U | 0.0654
156 | G86U G100A C131U | ≤ -4.2
157 | A52U C123G | -1.97
158 | C76U U77G G81U G92A C123A | ≤ -4.2
159 | A47G C87U U101C | 0.535
160 | A3U G92A A113G G133U A142U U146G | ≤ -4.2
161 | C57U C75A G88C G133U | ≤ -4.2
162 | A73G G86A A98U G117U C149U | -4.18
163 | U15G A21C A26U C38G G92A A113C | ≤ -4.2
164 | C85G C118U C132U | -3.11
165 | C105U U135A | 0.0587
166 | U6G A37G C38G C95U C116U G136U U139A U146C | ≤ -4.2
167 | C54U C96A A97G | -1.12

Reference: the RNAGym collection of RNA variant scans (doi:10.1073/pnas.2313332121)
